The source of these data is publication doi:10.1101/2023.03.09.531943 (bioRxiv, 2023).

Sequences and labels used below:
B1: IQD14-IQ1+2 synthetic peptide, residues 322-367 (peptide)
peptide: not shown
modifications: N-terminal acetylation; C-terminal amidation
B2: recombinant CML13 (natural protein)
chain: MGKDGLSDDQVSSMKEAFMLFDTDGDGKIAPSELGILMRSLGGNPTQAQLKSIIASENLSSPFDFNRFLDLMAKHLKTEPFDRQLRDAFKVLDKEGTGFVAVADLRHILTSIGEKLEPNEFDEWIKEVDVGSDGKIRYEDFIARMVAK
B3: recombinant CML14 (natural protein)
chain: MSKDGLSNDQVSSMKEAFMLFDTDGDGKIAPSELGILMRSLGGNPTESQLKSIITTENLSSPFDFNRFLDLMAKHLKTEPFDRQLRDAFKVLDKEGTGFVAVADLRHILTSIGEKLQPSEFDEWIKEVDVGSDGKIRYEDFIARMVAK

The target in test [1] is recombinant CaM (petunia CaM81) (petunia, UniProt P62199 1-149). The test is described as follows: ITC. On the technique in general: In ITC the heat of successive injections is recorded.
The test “recombinant CML13” deals with B2. The test is described as follows: ITC.
The test “recombinant CML14” deals with B3. The test is described as follows: ITC.
Test [2] concerns the target B1. The test is described as follows: AUC.
Test [3] addresses biotinylated CaM (petunia CaM81) (petunia, UniProt P62199 1-149, biotin, covalently conjugated (biotin-NHS ester), sites not stated). Nature of the test: far-Western, overlay or dot blot.
In a further test the target is T1, biotinylated CML13 (Arabidopsis thaliana, UniProt Q94AZ4 1-148, biotin, covalently conjugated (biotin-NHS ester), sites not stated).
T1 sequence: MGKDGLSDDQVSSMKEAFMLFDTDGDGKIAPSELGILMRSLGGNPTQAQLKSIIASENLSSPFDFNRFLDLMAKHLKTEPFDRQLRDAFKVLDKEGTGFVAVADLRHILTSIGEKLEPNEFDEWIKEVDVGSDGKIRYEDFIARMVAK
The test is described as follows: far-Western, overlay or dot blot.

The target of the next test is T2, biotinylated CML14 (Arabidopsis thaliana, UniProt Q8VZ50 1-148, biotin, covalently conjugated (biotin-NHS ester), sites not stated).
T2 sequence: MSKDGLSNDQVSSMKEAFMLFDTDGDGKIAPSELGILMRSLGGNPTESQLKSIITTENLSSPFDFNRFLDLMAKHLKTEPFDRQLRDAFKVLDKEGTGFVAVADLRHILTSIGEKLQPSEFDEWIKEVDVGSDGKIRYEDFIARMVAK
The test is described as follows: far-Western, overlay or dot blot.

One may read the Kd as the constant that tells how readily two partners part at equilibrium. For orientation: stoichiometry N means the number of molecules, sites or subunits per partner or assembly.

B1: the binding result (in test [1]; in the test with recombinant CML13; with recombinant CML14) was “binds” in each case.

In the case of Ac-QHASATKIQGAFRGYMARKSFRALK-NH2 [IQD14-IQ1 synthetic peptide, residues 322-346], the Kd was 7 nM in test [1], 222 nM with recombinant CML13 and 116 nM in the test with recombinant CML14.

Turning to Ac-ALKGLVRLQGVVRGYSVKRQTINA-NH2 [IQD14-IQ2 synthetic peptide, residues 344-367], in test [1], the binding result was “binds”.

For the molecule B2, the “stoichiometry N” value in test [2] was found to be 1.

Take B3: in test [2], the “stoichiometry N” value turned out to be 1.

B4: recombinant IQD14 (residues 307-418), all three putative IQ domains (domain or fragment)
chain: RREIVYRPEPTLPVQHASATKIQGAFRGYMARKSFRALKGLVRLQGVVRGYSVKRQTINAMKYMQQVVRVQSQIQSRRIKMLENQAQVEKDEAKWAASEAGNDNWDDSVLTK
Turning to B4, the binding result (in test [3]; with biotinylated CML13; with biotinylated CML14) was “binds” throughout.
